Results reported in article PMC517823 (2004).

T1: Ffh (UniProt P0AGD7 1-453)
T1 chain: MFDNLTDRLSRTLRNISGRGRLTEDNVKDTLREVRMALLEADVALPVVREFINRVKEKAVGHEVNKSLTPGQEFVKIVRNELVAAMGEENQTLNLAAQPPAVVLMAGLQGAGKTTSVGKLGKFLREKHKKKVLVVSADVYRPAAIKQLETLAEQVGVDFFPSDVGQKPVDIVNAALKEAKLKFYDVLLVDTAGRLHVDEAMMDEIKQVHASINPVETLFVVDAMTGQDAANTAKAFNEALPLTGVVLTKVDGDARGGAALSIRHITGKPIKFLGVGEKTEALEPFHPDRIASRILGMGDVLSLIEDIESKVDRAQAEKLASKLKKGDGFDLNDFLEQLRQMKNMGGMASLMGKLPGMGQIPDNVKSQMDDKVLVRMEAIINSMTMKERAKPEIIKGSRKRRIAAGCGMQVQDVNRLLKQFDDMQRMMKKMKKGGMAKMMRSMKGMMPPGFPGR

B1: FtsY D330(135)A (protein)
chain: ASEQAVEEQPQAHTEAEAETFAADVVEVTEQVAESEKAQPEAEVVAQPEPVVEETPEPVAIEREELPLPEDVNAEAVSPEEWQAEAETVEIVEAAEEEAAKEEITDEELETALAAEAAEEAVMVVPPAEEEQPVEEIAQEQEKPTKEGFFARLKRSLLKTKENLGSGFISLFRGKKIDDDLFEELEEQLLIADVGVETTRKIITNLTEGASRKQLRDAEALYGLLKEEMGEILAKVDEPLNVEGKAPFVILMVGVNGVGKTTTIGKLARQFEQQGKSVMLAAGATFRAAAVEQLQVWGQRNNIPVIAQHTGADSASVIFDAIQAAKARNIDVLIADTAGRLQNKSHLMEELKKIVRVMKKLDVEAPHEVMLTIDASTGQNAVSQAKLFHEAVGLTGITLTKLDGTAKGGVIFSVADQFGIPIRYIGVGERIEDLRPFKADDFIEALFARED
B2: FtsY D382(187)A (protein)
chain: ASEQAVEEQPQAHTEAEAETFAADVVEVTEQVAESEKAQPEAEVVAQPEPVVEETPEPVAIEREELPLPEDVNAEAVSPEEWQAEAETVEIVEAAEEEAAKEEITDEELETALAAEAAEEAVMVVPPAEEEQPVEEIAQEQEKPTKEGFFARLKRSLLKTKENLGSGFISLFRGKKIDDDLFEELEEQLLIADVGVETTRKIITNLTEGASRKQLRDAEALYGLLKEEMGEILAKVDEPLNVEGKAPFVILMVGVNGVGKTTTIGKLARQFEQQGKSVMLAAGDTFRAAAVEQLQVWGQRNNIPVIAQHTGADSASVIFDAIQAAKARNIDVLIAATAGRLQNKSHLMEELKKIVRVMKKLDVEAPHEVMLTIDASTGQNAVSQAKLFHEAVGLTGITLTKLDGTAKGGVIFSVADQFGIPIRYIGVGERIEDLRPFKADDFIEALFARED
B3: FtsY D479(278)A (protein)
chain: ASEQAVEEQPQAHTEAEAETFAADVVEVTEQVAESEKAQPEAEVVAQPEPVVEETPEPVAIEREELPLPEDVNAEAVSPEEWQAEAETVEIVEAAEEEAAKEEITDEELETALAAEAAEEAVMVVPPAEEEQPVEEIAQEQEKPTKEGFFARLKRSLLKTKENLGSGFISLFRGKKIDDDLFEELEEQLLIADVGVETTRKIITNLTEGASRKQLRDAEALYGLLKEEMGEILAKVDEPLNVEGKAPFVILMVGVNGVGKTTTIGKLARQFEQQGKSVMLAAGDTFRAAAVEQLQVWGQRNNIPVIAQHTGADSASVIFDAIQAAKARNIDVLIADTAGRLQNKSHLMEELKKIVRVMKKLDVEAPHEVMLTIDASTGQNAVSQAKLFHEAVGLTGITLTKLDGTAKGGVIFSVADQFGIPIRYIGVGERIEALRPFKADDFIEALFARED
B4: FtsY A336(141)W (domain or fragment)
chain: ASEQAVEEQPQAHTEAEAETFAADVVEVTEQVAESEKAQPEAEVVAQPEPVVEETPEPVAIEREELPLPEDVNAEAVSPEEWQAEAETVEIVEAAEEEAAKEEITDEELETALAAEAAEEAVMVVPPAEEEQPVEEIAQEQEKPTKEGFFARLKRSLLKTKENLGSGFISLFRGKKIDDDLFEELEEQLLIADVGVETTRKIITNLTEGASRKQLRDAEALYGLLKEEMGEILAKVDEPLNVEGKAPFVILMVGVNGVGKTTTIGKLARQFEQQGKSVMLAAGDTFRAAWVEQLQVWGQRNNIPVIAQHTGADSASVIFDAIQAAKARNIDVLIADTAGRLQNKSHLMEELKKIVRVMKKLDVEAPHEVMLTIDASTGQNAVSQAKLFHEAVGLTGITLTKLDGTAKGGVIFSVADQFGIPIRYIGVGERIEDLRPFKADDFIEALFARED
B5: FtsY K306(111)A (protein)
chain: ASEQAVEEQPQAHTEAEAETFAADVVEVTEQVAESEKAQPEAEVVAQPEPVVEETPEPVAIEREELPLPEDVNAEAVSPEEWQAEAETVEIVEAAEEEAAKEEITDEELETALAAEAAEEAVMVVPPAEEEQPVEEIAQEQEKPTKEGFFARLKRSLLKTKENLGSGFISLFRGKKIDDDLFEELEEQLLIADVGVETTRKIITNLTEGASRKQLRDAEALYGLLKEEMGEILAKVDEPLNVEGKAPFVILMVGVNGVGATTTIGKLARQFEQQGKSVMLAAGDTFRAAAVEQLQVWGQRNNIPVIAQHTGADSASVIFDAIQAAKARNIDVLIADTAGRLQNKSHLMEELKKIVRVMKKLDVEAPHEVMLTIDASTGQNAVSQAKLFHEAVGLTGITLTKLDGTAKGGVIFSVADQFGIPIRYIGVGERIEDLRPFKADDFIEALFARED
B6: FtsY K453(252)E (protein)
chain: ASEQAVEEQPQAHTEAEAETFAADVVEVTEQVAESEKAQPEAEVVAQPEPVVEETPEPVAIEREELPLPEDVNAEAVSPEEWQAEAETVEIVEAAEEEAAKEEITDEELETALAAEAAEEAVMVVPPAEEEQPVEEIAQEQEKPTKEGFFARLKRSLLKTKENLGSGFISLFRGKKIDDDLFEELEEQLLIADVGVETTRKIITNLTEGASRKQLRDAEALYGLLKEEMGEILAKVDEPLNVEGKAPFVILMVGVNGVGKTTTIGKLARQFEQQGKSVMLAAGDTFRAAAVEQLQVWGQRNNIPVIAQHTGADSASVIFDAIQAAKARNIDVLIADTAGRLQNKSHLMEELKKIVRVMKKLDVEAPHEVMLTIDASTGQNAVSQAKLFHEAVGLTGITLTKLDGTAEGGVIFSVADQFGIPIRYIGVGERIEDLRPFKADDFIEALFARED
B7: FtsY Asn302(107) to Ala (domain or fragment)
chain: ASEQAVEEQPQAHTEAEAETFAADVVEVTEQVAESEKAQPEAEVVAQPEPVVEETPEPVAIEREELPLPEDVNAEAVSPEEWQAEAETVEIVEAAEEEAAKEEITDEELETALAAEAAEEAVMVVPPAEEEQPVEEIAQEQEKPTKEGFFARLKRSLLKTKENLGSGFISLFRGKKIDDDLFEELEEQLLIADVGVETTRKIITNLTEGASRKQLRDAEALYGLLKEEMGEILAKVDEPLNVEGKAPFVILMVGVAGVGKTTTIGKLARQFEQQGKSVMLAAGDTFRAAAVEQLQVWGQRNNIPVIAQHTGADSASVIFDAIQAAKARNIDVLIADTAGRLQNKSHLMEELKKIVRVMKKLDVEAPHEVMLTIDASTGQNAVSQAKLFHEAVGLTGITLTKLDGTAKGGVIFSVADQFGIPIRYIGVGERIEDLRPFKADDFIEALFARED
B8: FtsY Asn302(107) to Trp (domain or fragment)
chain: ASEQAVEEQPQAHTEAEAETFAADVVEVTEQVAESEKAQPEAEVVAQPEPVVEETPEPVAIEREELPLPEDVNAEAVSPEEWQAEAETVEIVEAAEEEAAKEEITDEELETALAAEAAEEAVMVVPPAEEEQPVEEIAQEQEKPTKEGFFARLKRSLLKTKENLGSGFISLFRGKKIDDDLFEELEEQLLIADVGVETTRKIITNLTEGASRKQLRDAEALYGLLKEEMGEILAKVDEPLNVEGKAPFVILMVGVWGVGKTTTIGKLARQFEQQGKSVMLAAGDTFRAAAVEQLQVWGQRNNIPVIAQHTGADSASVIFDAIQAAKARNIDVLIADTAGRLQNKSHLMEELKKIVRVMKKLDVEAPHEVMLTIDASTGQNAVSQAKLFHEAVGLTGITLTKLDGTAKGGVIFSVADQFGIPIRYIGVGERIEDLRPFKADDFIEALFARED
B9: FtsY T307(112)W (protein)
chain: ASEQAVEEQPQAHTEAEAETFAADVVEVTEQVAESEKAQPEAEVVAQPEPVVEETPEPVAIEREELPLPEDVNAEAVSPEEWQAEAETVEIVEAAEEEAAKEEITDEELETALAAEAAEEAVMVVPPAEEEQPVEEIAQEQEKPTKEGFFARLKRSLLKTKENLGSGFISLFRGKKIDDDLFEELEEQLLIADVGVETTRKIITNLTEGASRKQLRDAEALYGLLKEEMGEILAKVDEPLNVEGKAPFVILMVGVNGVGKWTTIGKLARQFEQQGKSVMLAAGDTFRAAAVEQLQVWGQRNNIPVIAQHTGADSASVIFDAIQAAKARNIDVLIADTAGRLQNKSHLMEELKKIVRVMKKLDVEAPHEVMLTIDASTGQNAVSQAKLFHEAVGLTGITLTKLDGTAKGGVIFSVADQFGIPIRYIGVGERIEDLRPFKADDFIEALFARED
B10: FtsY K312(117)A (protein)
chain: ASEQAVEEQPQAHTEAEAETFAADVVEVTEQVAESEKAQPEAEVVAQPEPVVEETPEPVAIEREELPLPEDVNAEAVSPEEWQAEAETVEIVEAAEEEAAKEEITDEELETALAAEAAEEAVMVVPPAEEEQPVEEIAQEQEKPTKEGFFARLKRSLLKTKENLGSGFISLFRGKKIDDDLFEELEEQLLIADVGVETTRKIITNLTEGASRKQLRDAEALYGLLKEEMGEILAKVDEPLNVEGKAPFVILMVGVNGVGKTTTIGALARQFEQQGKSVMLAAGDTFRAAAVEQLQVWGQRNNIPVIAQHTGADSASVIFDAIQAAKARNIDVLIADTAGRLQNKSHLMEELKKIVRVMKKLDVEAPHEVMLTIDASTGQNAVSQAKLFHEAVGLTGITLTKLDGTAKGGVIFSVADQFGIPIRYIGVGERIEDLRPFKADDFIEALFARED
B11: FtsY Q339(144)A (protein)
chain: ASEQAVEEQPQAHTEAEAETFAADVVEVTEQVAESEKAQPEAEVVAQPEPVVEETPEPVAIEREELPLPEDVNAEAVSPEEWQAEAETVEIVEAAEEEAAKEEITDEELETALAAEAAEEAVMVVPPAEEEQPVEEIAQEQEKPTKEGFFARLKRSLLKTKENLGSGFISLFRGKKIDDDLFEELEEQLLIADVGVETTRKIITNLTEGASRKQLRDAEALYGLLKEEMGEILAKVDEPLNVEGKAPFVILMVGVNGVGKTTTIGKLARQFEQQGKSVMLAAGDTFRAAAVEALQVWGQRNNIPVIAQHTGADSASVIFDAIQAAKARNIDVLIADTAGRLQNKSHLMEELKKIVRVMKKLDVEAPHEVMLTIDASTGQNAVSQAKLFHEAVGLTGITLTKLDGTAKGGVIFSVADQFGIPIRYIGVGERIEDLRPFKADDFIEALFARED
B12: FtsY K447(246)A (protein)
chain: ASEQAVEEQPQAHTEAEAETFAADVVEVTEQVAESEKAQPEAEVVAQPEPVVEETPEPVAIEREELPLPEDVNAEAVSPEEWQAEAETVEIVEAAEEEAAKEEITDEELETALAAEAAEEAVMVVPPAEEEQPVEEIAQEQEKPTKEGFFARLKRSLLKTKENLGSGFISLFRGKKIDDDLFEELEEQLLIADVGVETTRKIITNLTEGASRKQLRDAEALYGLLKEEMGEILAKVDEPLNVEGKAPFVILMVGVNGVGKTTTIGKLARQFEQQGKSVMLAAGDTFRAAAVEQLQVWGQRNNIPVIAQHTGADSASVIFDAIQAAKARNIDVLIADTAGRLQNKSHLMEELKKIVRVMKKLDVEAPHEVMLTIDASTGQNAVSQAKLFHEAVGLTGITLTALDGTAKGGVIFSVADQFGIPIRYIGVGERIEDLRPFKADDFIEALFARED

Molecular target: T1, Ffh
Test: GTP; inhibition assay

Q: How did the Ki turn out when B1 was run?
A: The Ki was 2400 nM.

Q: With B2 as the binder, how does the Ki read?
A: The Ki was 27000 nM.

Q: How did the Ki turn out when B3 was run?
A: The Ki was 2800 nM.

Q: How did the Ki turn out when B4 was run?
A: Its Ki is 160 nM.

Q: For B5, which Ki is on record?
A: The Ki was 3500 nM.

Q: How did the Ki turn out when B6 was run?
A: The Ki was 3100 nM.

Q: For B7, which Ki is on record?
A: Its Ki is 110 nM.

Q: For B8, which Ki is on record?
A: Its Ki is 140 nM.

Q: B9 was tested. Which Ki did it give?
A: The Ki was 9900 nM.

Q: How did the Ki turn out when B10 was run?
A: The Ki was 2400 nM.

Q: With B11 as the binder, how does the Ki read?
A: The Ki was 3900 nM.

Q: With B12 as the binder, how does the Ki read?
A: Its Ki is 11000 nM.
